The supplement of paper PMC9112550, “Optimization of the antimicrobial peptide Bac7 by deep mutational scanning” (BMC Biology, 2022)

Tested on: Escherichia coli TOP10
Assay: shrunken log2 fold change of peptide-encoding DNA abundance (4.5 h post-induction vs induction); higher = less antimicrobial activity (less host growth inhibition)
Conditions: time post-induction: 4.5 h; library: site-saturation at positions 5, 18, 19, 20
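Note: peptides expressed intracellularly from a pBAD plasmid library in pooled LB shake-flask culture, induced with 0.3% L-arabinose, DNA abundance read by NGS, three biological replicates, DESeq2 with apeglm shrinkage.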

Row | Sequence | shrunken log2 fold change
1 | RRIRYRPPRLPRPRPRPKQKPRP | -0.0531
2 | RRIRWRPPRLPRPRPRPWSHPRP | -0.00467
3 | RRIRCRPPRLPRPRPRPRWTPRP | 0.236
4 | RRIRSRPPRLPRPRPRPSPQPRP | -0.108
5 | RRIRTRPPRLPRPRPRPRMKPRP | 0.0156
6 | RRIRARPPRLPRPRPRPKGFPRP | 0.102
7 | RRIRKRPPRLPRPRPRPTEPPRP | -0.0305
8 | RRIRMRPPRLPRPRPRPTPYPRP | 0.2
9 | RRIRHRPPRLPRPRPRPLQSPRP | -0.0699
10 | RRIRVRPPRLPRPRPRPRWRPRP | 0.587
11 | RRIRFRPPRLPRPRPRPKMTPRP | -0.173
12 | RRIRFRPPRLPRPRPRPGQEPRP | -0.0664
13 | RRIRPRPPRLPRPRPRPDVHPRP | -0.0196
14 | RRIRQRPPRLPRPRPRPKQAPRP | 0.0135
15 | RRIRWRPPRLPRPRPRPNCWPRP | 0.533
16 | RRIRRRPPRLPRPRPRPKWNPRP | 0.0781
17 | RRIRYRPPRLPRPRPRPPWEPRP | -0.381
18 | RRIRARPPRLPRPRPRPFRDPRP | -0.169
19 | RRIRNRPPRLPRPRPRPFKTPRP | -0.0614
20 | RRIRHRPPRLPRPRPRPVDAPRP | 0.131
21 | RRIRFRPPRLPRPRPRPWYMPRP | -0.991
22 | RRIRSRPPRLPRPRPRPNVSPRP | -0.0656

Row | Sequence | shrunken log2 fold change
23 | RRIRRRPPRLPRPRPRPMCGPRP | -0.0233
24 | RRIRNRPPRLPRPRPRPCGSPRP | -0.0353
25 | RRIRSRPPRLPRPRPRPYMPPRP | -1.04
26 | RRIRYRPPRLPRPRPRPNDDPRP | -0.0641
27 | RRIRNRPPRLPRPRPRPDIKPRP | -0.171
28 | RRIRWRPPRLPRPRPRPQCCPRP | -0.0128
29 | RRIRCRPPRLPRPRPRPVASPRP | 0.149
30 | RRIRFRPPRLPRPRPRPLSPPRP | -0.476
31 | RRIRPRPPRLPRPRPRPLLVPRP | 0.1
32 | RRIRVRPPRLPRPRPRPIADPRP | 0.0367
33 | RRIRWRPPRLPRPRPRPQKMPRP | -0.0924
34 | RRIRQRPPRLPRPRPRPNSGPRP | -0.0316
35 | RRIRNRPPRLPRPRPRPGAMPRP | 0.101
36 | RRIRTRPPRLPRPRPRPNENPRP | 1.59
37 | RRIRTRPPRLPRPRPRPDVHPRP | 1.16
38 | RRIRHRPPRLPRPRPRPRLAPRP | 0.206
39 | RRIRRRPPRLPRPRPRPTEYPRP | 0.0398
40 | RRIRGRPPRLPRPRPRPNQRPRP | 0.27
41 | RRIRGRPPRLPRPRPRPSDAPRP | 0.264
42 | RRIRCRPPRLPRPRPRPVEKPRP | 0.551
43 | RRIRGRPPRLPRPRPRPLHAPRP | 1.54
44 | RRIRSRPPRLPRPRPRPGEQPRP | 0.00836

Row | Sequence | shrunken log2 fold change
45 | RRIRYRPPRLPRPRPRPGIVPRP | -0.384
46 | RRIRVRPPRLPRPRPRPNANPRP | 0.063
47 | RRIRCRPPRLPRPRPRPFDYPRP | 0.0472
48 | RRIRERPPRLPRPRPRPFNNPRP | -0.39
49 | RRIRARPPRLPRPRPRPNHRPRP | 0.00751
50 | RRIRFRPPRLPRPRPRPLKQPRP | 0.053
51 | RRIRWRPPRLPRPRPRPPGWPRP | 0.527
52 | RRIRHRPPRLPRPRPRPQQIPRP | -0.0193
53 | RRIRTRPPRLPRPRPRPLNRPRP | -0.173
54 | RRIRWRPPRLPRPRPRPDHWPRP | 0.109
55 | RRIRYRPPRLPRPRPRPRPMPRP | -0.227
56 | RRIRIRPPRLPRPRPRPNWCPRP | -0.26
57 | RRIRGRPPRLPRPRPRPYDFPRP | -0.0968
58 | RRIRYRPPRLPRPRPRPWVYPRP | -0.234
59 | RRIRDRPPRLPRPRPRPGWWPRP | 0.227
60 | RRIRYRPPRLPRPRPRPRPDPRP | -0.0672
61 | RRIRLRPPRLPRPRPRPGQDPRP | 0.0899
62 | RRIRPRPPRLPRPRPRPSQWPRP | -0.0044
63 | RRIRERPPRLPRPRPRPVWGPRP | 0.259
64 | RRIRARPPRLPRPRPRPIEQPRP | 0.124
65 | RRIRARPPRLPRPRPRPFKVPRP | 0.0346
66 | RRIRTRPPRLPRPRPRPLRRPRP | 0.323

Row | Sequence | shrunken log2 fold change
67 | RRIRFRPPRLPRPRPRPGMFPRP | 0.0382
68 | RRIRYRPPRLPRPRPRPNDWPRP | -0.116
69 | RRIRQRPPRLPRPRPRPPWAPRP | 0.577
70 | RRIRIRPPRLPRPRPRPIMRPRP | 0.139
71 | RRIRGRPPRLPRPRPRPSRHPRP | 0.0789
72 | RRIRNRPPRLPRPRPRPHPSPRP | -0.25
73 | RRIRWRPPRLPRPRPRPMCDPRP | 0.116
74 | RRIRYRPPRLPRPRPRPMQGPRP | -0.0463
75 | RRIRHRPPRLPRPRPRPFLHPRP | -0.449
76 | RRIRVRPPRLPRPRPRPFGSPRP | -0.137
77 | RRIRGRPPRLPRPRPRPQVEPRP | -0.0312
78 | RRIRPRPPRLPRPRPRPFIYPRP | -0.0739
79 | RRIRQRPPRLPRPRPRPPAHPRP | 0.0556
80 | RRIRDRPPRLPRPRPRPDFLPRP | 0.136
81 | RRIRQRPPRLPRPRPRPFWWPRP | 0.0308
82 | RRIRARPPRLPRPRPRPLIHPRP | -0.117
83 | RRIRIRPPRLPRPRPRPTHTPRP | -0.448
84 | RRIRLRPPRLPRPRPRPDLGPRP | -0.0612
85 | RRIRWRPPRLPRPRPRPVDCPRP | 0.00927
86 | RRIRERPPRLPRPRPRPAQRPRP | 0.324
87 | RRIRKRPPRLPRPRPRPYHDPRP | 0.035
88 | RRIRFRPPRLPRPRPRPHGRPRP | 0.187

Row | Sequence | shrunken log2 fold change
89 | RRIRNRPPRLPRPRPRPALVPRP | 0.461
90 | RRIRRRPPRLPRPRPRPYIVPRP | -0.263
91 | RRIRFRPPRLPRPRPRPRLKPRP | 0.0563
92 | RRIRPRPPRLPRPRPRPEQSPRP | 0.289
93 | RRIRLRPPRLPRPRPRPVWCPRP | 0.0297
94 | RRIRSRPPRLPRPRPRPTYWPRP | -0.123
95 | RRIRYRPPRLPRPRPRPFYGPRP | 0.0392
96 | RRIRNRPPRLPRPRPRPCYVPRP | -0.0102
97 | RRIRSRPPRLPRPRPRPAKYPRP | -0.215
98 | RRIRDRPPRLPRPRPRPCMTPRP | 0.33
99 | RRIRKRPPRLPRPRPRPLRSPRP | 0.962
100 | RRIRERPPRLPRPRPRPEYVPRP | -0.0151
101 | RRIRVRPPRLPRPRPRPGGHPRP | 0.13
102 | RRIRMRPPRLPRPRPRPVKHPRP | 0.0894
103 | RRIRQRPPRLPRPRPRPHTNPRP | -0.814
104 | RRIRQRPPRLPRPRPRPSCRPRP | -0.28
105 | RRIRCRPPRLPRPRPRPLYTPRP | -0.765
106 | RRIRMRPPRLPRPRPRPYVKPRP | -0.209
107 | RRIRFRPPRLPRPRPRPDFEPRP | 0.0453
108 | RRIRLRPPRLPRPRPRPHVGPRP | -0.442
109 | RRIRKRPPRLPRPRPRPCRWPRP | -0.0708
